Assay results as given in the Immune Epitope Database (IEDB).
pKd: −log10 of the molar value.

Legend:
HLA-B*45:06 = test: IEDB peptide-MHC binding, purified MHC/competitive/fluorescence; filed as Kd, often an IC50 or EC50 that approximates it; ≥ and ≤ were set here for values at or beyond the usual limits of such assays; details: source organism: Kurkino virus
HLA-B*15:42 = test: as above; details: source organism: Kurkino virus
HLA-B*40:13 = test: as above; details: source organism: Kurkino virus
HLA-A*32:07 = test: as above; details: source organism: Kurkino virus
HLA-B*83:01 = test: as above; details: source organism: Kurkino virus
HLA-A*32:15 = test: as above; details: source organism: Kurkino virus
HLA-B*27:20 = test: as above; details: source organism: Kurkino virus
HLA-A*03:19 = test: as above; details: source organism: Kurkino virus
HLA-A*02:19 = test: IEDB peptide-MHC binding, purified MHC/direct/fluorescence; filed as Kd, often an IC50 or EC50 that approximates it; ≥ and ≤ were set here for values at or beyond the usual limits of such assays; details: source organism: Kurkino virus
HLA-A*02:11 = test: as above; details: source organism: Kurkino virus
HLA-A*02:01 [1] = test: as above; details: source organism: Orthohantavirus dobravaense
HLA-A*69:01 = test: as above
HLA-A*02:12 = test: as above; details: source organism: Kurkino virus
HLA-A*11:01 = test: IEDB peptide-MHC binding, purified MHC/competitive/fluorescence; filed as Kd, often an IC50 or EC50 that approximates it; ≥ and ≤ were set here for values at or beyond the usual limits of such assays; details: source organism: Vaccinia virus Tian Tan
HLA-B*39:01 = test: as above; details: source organism: Vaccinia virus Tian Tan
HLA-B*35:01 = test: as above; details: source organism: Vaccinia virus Tian Tan
HLA-A*26:02 = test: as above; details: source organism: Vaccinia virus Tian Tan
HLA-A*68:02 = test: as above; details: source organism: Vaccinia virus Tian Tan
HLA-A*02:01 [2] = test: as above; details: source organism: Vaccinia virus Tian Tan
HLA-B*15:09 = test: as above; details: source organism: Vaccinia virus Tian Tan
HLA-B*15:17 = test: as above; details: source organism: Vaccinia virus Tian Tan
HLA-A*32:01 = test: IEDB peptide-MHC binding, purified MHC/competitive/radioactivity; filed as Kd, often an IC50 or EC50 that approximates it; ≥ and ≤ were set here for values at or beyond the usual limits of such assays; details: source organism: Vaccinia virus WR
HLA-B*15:03 = test: as above; details: source organism: Vaccinia virus WR
HLA-B*07:02 = test: IEDB peptide-MHC binding, purified MHC/direct/fluorescence; filed as Kd, often an IC50 or EC50 that approximates it; ≥ and ≤ were set here for values at or beyond the usual limits of such assays; details: source organism: Camelpox virus CMS
HLA-B*46:01 = test: as above; details: source organism: Camelpox virus CMS
HLA-A*01:01 = test: as above; details: source organism: Camelpox virus CMS
HLA-B*48:01 = test: as above; details: source organism: Camelpox virus CMS
HLA-B*58:01 = test: as above; details: source organism: Camelpox virus CMS
HLA-A*31:01 = test: as above; details: source organism: Camelpox virus CMS
HLA-B*15:01 = test: as above; details: source organism: Camelpox virus CMS
HLA-B*27:05 = test: as above; details: source organism: Camelpox virus CMS
HLA-A*26:01 = test: as above; details: source organism: Variola virus
HLA-B*57:01 = test: as above; details: source organism: Camelpox virus CMS

Sequence: SLYSGFPSL
- pKd (HLA-B*45:06): ≤ 5.30
- pKd (HLA-B*15:42): ≤ 5.30
- pKd (HLA-B*40:13): 6.80
- pKd (HLA-A*32:07): 8.60
- pKd (HLA-B*83:01): ≤ 5.30
- pKd (HLA-A*32:15): 7.52
- pKd (HLA-B*27:20): 7.58
- pKd (HLA-A*03:19): 7.58
- pKd (HLA-A*02:19): 7.38
- pKd (HLA-A*02:11): ≥ 9.00
- pKd (HLA-A*02:01 [1]): ≥ 9.00
- pKd (HLA-A*69:01; source organism: Orthohantavirus dobravaense): ≥ 9.00
- pKd (HLA-A*02:12): ≥ 9.00

Sequence: WQFAIHYSF
- pKd (HLA-A*11:01): ≤ 4.70
- pKd (HLA-B*39:01): 6.22
- pKd (HLA-B*35:01): 6.04
- pKd (HLA-A*26:02): 6.08
- pKd (HLA-A*68:02): ≤ 4.70
- pKd (HLA-A*02:01 [2]): ≤ 4.70
- pKd (HLA-B*15:09): ≤ 4.70
- pKd (HLA-B*15:17): 5.33
- pKd (HLA-A*32:01): 8.56
- pKd (HLA-B*15:03): 8.35
- pKd (HLA-B*07:02): ≤ 4.70
- pKd (HLA-B*46:01): ≤ 4.70
- pKd (HLA-A*01:01): ≤ 4.70
- pKd (HLA-B*48:01): 6.80
- pKd (HLA-B*58:01): ≤ 4.70
- pKd (HLA-A*31:01): ≤ 4.70
- pKd (HLA-B*15:01): 6.89
- pKd (HLA-B*27:05): 6.56
- pKd (HLA-A*69:01; source organism: Camelpox virus CMS): ≤ 4.70
- pKd (HLA-A*26:01): ≤ 4.70
- pKd (HLA-B*57:01): ≤ 4.70
